Test results: the DeepSol protein solubility set

Assay: soluble on expression in E. coli; label from the status in PepcDB or PDB records

Sequence | soluble on expression in E. coli
MSLDKVLVGYWHNWKSTGKDGYKGGSSADFNLSSTQEGYNVINVSFMKTPEGQTLPTFKPYNKTDTEFRAEISKLNAEGKSVLIALGGADAHIELKKSQESDFVNEIIRLVDTYGFDGLDIDLEQAAIEAADNQTVIPSALKKVKDHYRKDGKNFMITMAPEFPYLTSSGKYAPYINNLDSYYDFINPQYYNQGGDGFWDSDLNMWISQSNDEKKEDFLYGLTQRLVTGTDGFIKIPASKFVIGLPSNNDAAATGYVKDPNAVKNALNRLKASGNEIKGLMTWSVNWDAGTNSNGEKYNNTFVNTYAPMLFNNEGIITITTDPNSSSVDKLAAALEHHHHHH | soluble
MITNDHDRRKQISVRGIAQVENVSNIKKAFNRHLHFSIIKDRNVATDRDYYFALANTVRDHLVSRWIRTQQHYYDKDPKRVYYLSLEFYMGRTLSNTMMNLGIQATVDEALYQLGLDIEELQEIEEDAGLGNGGLGRLAACFLDSMATLGIPAYGYGLRYEYGIFKQLIRDGWQIEEPDDWLRFGNPWEKARPEYMLPVNFYGKVVKEDGKSKWIDTQVVFAMPYDTPVPGYKNNIVNTLRLWSAKAENHFHLKFFNDGDYVQAVMDRNLSENITRVLYPNDNMFLGKELRLKQQYFLVAATLQDIIRRFKSSIYGNREAVRVNFETFPDKVAIQLNDTHPSIGIPELIRLLIDVEGLTWDQAWDICIKTYAYTNHTLLPEALERWPVSLMQNLLPRHLEIIYEINQKFMNTISQRFPGDFDRMRRMSIVEEADQFGEKRINMAHLCIVASHAINGVAALHSDLLKSSTFRDFYEFYPDRFQNKTNGITPRRWLLLSNPSLADLIVEKIGESWITNLDELQKLKEYANDAGFLDSIRRVKLENKQQVAQYLSDEYNVNVNAASLFDVHVKRIHEYKRQLLNILHVIALYNRIKENPNIDMVKRTVLYGGKAAPGYHMAKQIIRLITAVAEQVNNDAIVGDRLKVIFLENYRVSMAEKIIPASDLSEQISTAGTEASGTGNMKFMLNGALTIGTLDGANVEMAEEMGDENIFIFGMNVEEVEALTKRGYSSQEFIDKSPMLKQIIEQIEGGMFTPEDPDQLKDLSNMLRYHDRFMVCADFDAFIEAQDKVSATFRDQEKWSRMALYNIASTGKFSTDRTITEYAREIWGIDQFESSLPAPYENEKSE | not soluble
MTPFMTEDFLLDTEFARRLYHDYAKDQPIFDYHCHLPPQQIAEDYRFKNLYDIWLKGDHYKWRAMRTNGVAERLCTGDASDREKFDAWAATVPHTIGNPLYHWTHLELRRPFGITGKLLSPSTADEIWNECNELLAQDNFSARGIMQQMNVKMVGTTDDPIDSLEHHAEIAKDGSFTIKVLPSWRPDKAFNIEQATFNDYMAKLGEVSDTDIRRFADLQTALTKRLDHFAAHGCKVSDHALDVVMFAEANEAELDSILARRLAGETLSEHEVAQFKTAVLVFLGAEYARRGWVQQYHIGALRNNNLRQFKLLGPDVGFDSINDRPMAEELSKLLSKQNEENLLPKTILYCLNPRDNEVLGTMIGNFQGEGMPGKMQFGSGWWFNDQKDGMERQMTQLAQLGLLSRFVGMLTDSRSFLSYTRHEYFRRILCQMIGRWVEAGEAPADINLLGEMVKNICFNNARDYFAIELN | soluble
MSLTTQLGLPDDIQACLFDLDGVVTRTAVVHAAAWKATFDTFLRERDGADFRPFTDSDYDQYVDGRPRADGVRSFLASRGVELPEGTPDDPPDARTVNGVGNRKNELLLEKIRTDGVEPYEGTLRYIDAVRAAGLATAIVSSSANTRDVLRSIDAERLFDVRIDGVVARERKLPGKPHPDTFLAAARDLGVEASRAAVFEDALAGMDAGRSGHFGYVVGVDRVGQTDALYAHGADRVVKDLAELGDHAEGHHHHHH | soluble
MAHHHHHHMEEEKAGSSELVLAQESAWDKFGSKLKDMPFLNNFFENPILGKLFGETELAAALREMKMYDQNFKLSELMYLFEFVISKHIVESYLIGDEETLRVHCGQSAFNSLNASINERKKKKVYLDTNVLIYKNHELKGAQRMEESSPWFIFTFHTQQINCLKNANDEIIEGNIDDIREVVYTIALSKHPEPEREGLLYPYIVREFAIIGNTPSW | soluble
MSQEHESSFQDPSRDELIQQVKELQIINANQRPEKILQEAFEKINLLVITIDQDGLIVYANEAFLEVIGWEKQRLLGENWKEFLEPGKDKNKEEHIYTLIKKQGFIDQLKRKFLSKEGDYRTIKFNVVIHHPIGNDVHLTTLIGEDIT | not soluble
MTSIRKWQVGESLPEVTLAPVSRLDLIKYAGASGDYNPIHTIDEEAKKAGLPGIIAHGMWTMGNLAKLFTPYYEEGFVQDYFVRFQSMVFLNDVITLKATVKEKDKKAIRFAVAAVNQHGKEVIKGEAVFSLYE | not soluble
MGSDKIHHHHHHMTIRYTFGGDEFIFVEISESMSLDAFFKGTAITRELRRRNVPGVTEICPANASYQVRYDPDVIEPDTLLALLKTIEAEVGEAALNIDTRIVEVPVLYNDPWTHETLMRFRERHQAPESTDLEYAARVNGKRDIDEFIAAHAGSPWFVSMVGFVAGLPFMYQMVERERQLQVPKYLRPRTDTPKLTVGHGGCFGCIYSVRGAGGYQMFGVTPAPIFDPAQRLDYLRDFMVFFRPGDIVKFKPIDRAEYDAAVAAVEAGTFTLRVKPVRFALEAFLRDPHAYNRSLVEVLDAN | not soluble
MKRRLDDQESPVYAAQQRRIPGSTEAFPHQHRVLAPAPPVYEAVSETMQSATGIQYSVTPSYQVSAMPQSSGSHGPAIAAVHSSHHHPTAVQPHGGQVVQSHAHPAPPVAPVQGQQQFQRLKVVFSSFSWVKKFIFSRKYWLQLVGCGGTTSNLRY | not soluble
MIPGEYIIKNEFITLNDGRRTLNIKVSNTGDRPVQVGSHYHFFEVNRYLEFDRKSAFGMRLDIPSGTAVRFEPGEEKTVQLVEIGGSREIYGLNDLTCGPLDREDLSNVFKKAKELGFKGVE | not soluble
MGSDKIHHHHHHMPHLFYGTAQNGEVIFDEREAHHMRVVRLKEGDVIEATDGNGFSYTCILKSLKKKTAAAKIVKVEEKEKEPTEKLSVVVPIGRWERTRFLIEKCVELGVDEIFFHKFERSQHEISLDKAKIVVREAAKQCKRYLFPKVSFLEKLEFSGNVITLDLDASQNLLDANLEGSITVVVGPEGGFSEKERELLRSSTTIVSLGKKILRFETAAILTVGYIALKKQKI | soluble
MSLIDLYDLRMPQRTGTYVLHEENLAIIETGPSPSVPHLLAGLKALHIDPADIRYIIVTHIHLDHAGGVGVLLEHCPNATVIVHPKGKRHLADPSRLIAGAKAVYGEQFDALFDPIVPVPEERLLVKEDGETLVLSAERTLTFYDTPGHANHHFSIYDSYSGGVFTGDTIGVFYPQLQEAGLAFCLPSTSPNQFNPEAMKQSAERLEKLNPTRIYFGHFGALDQPEEAFRQLRFWLPKFVAAGKEVIARHPEAPAAEQAKAVTKLLHNDITAFLNECSIPASSPVYKVIELDLQVCAMGIIDYWRKQRLEHHHHHH | not soluble
MAHHHHHHMLCGSRATFARTAVAFFNMKHFQTKKKYNLTPQNIYETFSTVLLPRDRLLRQSVSGGGGSRVLVLDAQQRVKGVYLPVFCMPHPSTVTNGSNSLGVAVADYTRSIEATLAMHKAGGGGGTAPTLPTVLVVLSHPQGLAYGTFRADGTPGVPMKNLALAPILANARTQQASTNIASTPLRTSGLGTVMPLLNVSHRHAEVVRDIYTELNECEHVAELAACSTFVWVQRDNMSSMTFEKAQSSERYWERAKNDGDSAAAPPPGAISFLDRRWVLLMDVALHPDTGLGLYARDPATGDRIVNATGVQSALCRGLLLLDHVPRTVANTARAANRETGVSG | soluble
MTATNDKGLQQIATIIEQHQTLPGAMLPILHAIQNDLSFIPSNALPLIAKALNVSKAEVHGVISFYHHFRTEEPGAHVIEICRGESCQAMGSRALEENIKQNLSIDYHQTSKDRQYTLEPVYCLGNCACSPAMRIGDDIHGELDLQKFEQIIASLNTYSLELK | not soluble
MGGSHHHHHHGMASMTGGQQMGRTLYDDDDKDRWGSMNYVIIGGDAAGMSAAMQIVRNDENANVVTLEKGEIYSYAQCGLPYVISGAIASTEKLIARNVKTFRDKYGIDAKVRHEVTKVDTEKKIVYAEHTKTKDVFEFSYDRLLIATGVRPVMPEWEGRDLQGVHLLKTIPDAERILKTLETNKVEDVTIIGGGAIGLEMAETFVELGKKVRMIERNDHIGTIYDGDMAEYIYKEADKHHIEILTNENVKAFKGNERVEAVETDKGTYKADLVLVSVGVKPNTDFLEGTNIRTNHKGAIEVNAYMQTNVQDVYAAGDCATHYHVIKEIHDHIPIGTTANKQGRLAGLNMLDKRRAFKGTLGTGIIKFMNLTLARTGLNEKEAKGLHIPYKTVKVDSTNMAGYYPNAKPLYLKLLYRSDTKQLLGGQVIGEEGVDKRIDVIAMALFNKMSIHDLEDVDLSYAPPYNSVWDPIQQAARRAE | soluble
MGSDKIHHHHHHMTKRAVVAGINDYRNWNSVGFGNLSWCLTDAQSFAEDVLVHGRGFRPDDITVLLDRDATRTNILEHLRRLLARADLGDVICLYFSGHGDRAQVPGTPSEWHETIVPYDGAAMISDHEINALIAGLEFNRLNLTLVLDSCHSGGVYDPAPPQGSKVAQWGEDKLGALVSTCKTILPTICAQTVDPFVNNIQAILRAVDSATMTVDGAKDTAETAKATLFSACDFDETAKENPTLRHGFMTKALLDTVTQSAFKMPNRLLASDLRGKVAAFVSQFGTSQQTPCLRGRPVRQDEDFLTEWTFSI | not soluble
MYVTIVYASVKTDKTEAFKEATRMNHEQSIREPGNMRFDILQSADDPTRFVLYEAYKTRKDAAAHKETAHYLTWRDTVADWMAEPRKGVIYGGLYPTGDD | soluble
SGILFMSKVGLRGDRRSEGDEVLDPLRQALDSSMQSHNLYQHPQHLAFHVSAPVASTVQQASGLLGPLPHLSSFALQPAHSLLPPLGSHGAGFQENGAKAES | soluble
STKLLYLKPIQTGFPSDSDSRFVFSKLDSLSLRRQIPISISNSVLHSSLPAAKSLGLNVEVSESGMCSLNFRDEKTVTGAPELLCKTLYAWEAAISPHLAAERENATVEDSVVLQMIEKCLKEEMECGVKSEKSDLLCLVETAGGVASPGPSGTLQCDLYRPFRLPGILVGDGRLGGISGTIAAYESLKLRGYDIAAVVFEDHGLVNEVPLTSYLRNK | soluble
MAEKVAVIVGPTAVGKTKLGIALAKKLGGEVISGDSMQIYKGMDIGTAKVKPDEMEGIPHHLLDIKEPCEPFSVVEFQRLCRALITEISARGRLPIIVGGTGLYIQAALYDYQFSAAPSDEAYRRALKQLAAEQGAEALHRRLEAVDPISAARIHPHNIRRVIRALEVYHCTGKPFSEWQQTEKRLLYEAAIVGLTAEREALYRRINERVDEMIAAGLIEEARALYDRGLRDCQAVQAIGYKELYDYFDGRVSLDEAIEQLKQNSRRYAKRQLTWFRNQMPVKWFDMTDAGQFAAKVQEISRYVAGKLQLEANI | not soluble
RSDTTIVATVNPRDKQTTLVSLARDTYVDIPGQGKQDKLNHAYAFGGASLAMDTVENYLNIPINHYVSINMAGLKELVNAVGGIEVNNNLTFSQDGYDFTIGKISLDGEQALSYSRMRYEDPNGDYGRQERQRKVIEGIVQKVLS | not soluble
MAHHHHHHMYLGSIKNFEDDFLCKGEYKQVYLSLEQNENNEAIEIDICCDNNIYDILQFCREKYGIYGEYIIDSCGNVIHSIKDIIDGDTLYLKEKKEDMNFFSKIKNNFIVNDYIVEKRIGSGGFGIVFQGVHIQTKQKVALKFIPKSNFLDVTDVHRVFIEIQTLRGLIHNNIIKMYDVNHFQNYVCLIMEYAINGDLKNYIKNKFNGFLSEKEAHDLFLQIVKGVYYCHSKHIVHRDLKLENILLDEKMTCKIADFGLSDFVNVDQNIKTEAGTKAYIAPEIIFNQTINYSVFKLDIWSLGILLFIMTQGFAPFKYMEKELKNFESNTLNYANDISDDLKDLISLMLNVDPNKRPIIVEILNHRWFENYKES | soluble
